Experiment [1] has as its target T1, IL-2Rβγ heterodimer, custom biotinylated Fc fusion protein (human IL-2Rβ 27-240-Fc-FLAG / human IL-2Rγ … (human, site-specific biotinylation at the AviTag)).
T1 construct: Extracellular regions fused to IgG1 knob-in-hole Fc subunits with tags; also called IL-2 receptor βγ heterodimer; Fc-IL-2Rβγ
The experiment in a line: SPR (Biacore), CM4 chip, biotinylated receptor on neutravidin. As to the method:
Fc-IL-2 variant binding data was collected on a Biacore platform using a CM4 chip. Neutravidin was immobilized using standard amine coupling methods and used to capture biotinylated receptors. The source, preparation and immobilization of biotinylated IL-2Rα and IL-2Rβγ heterodimer was as described in Example 4. Proleukin was used as a comparator. Fc-IL-2 variants and Proleukin were injected at various concentrations over these surfaces. Kinetic data obtained from these injections was used to extract kₒₙ and koff to calculate KD (KD=Koff/kₒₙ).
For orientation: SPR reads the build-up and loss of mass on a sensor chip optically.

Experiment [2] deals with T2, trimeric murine IL-2 receptor (IL-2Rα, IL-2Rβ, and IL-2Rγ) on CTLL-2 cells (murine, UniProt P01590 22-268; P16297 27-539; P34902 23-369).
T2 sequence (looked up) 1: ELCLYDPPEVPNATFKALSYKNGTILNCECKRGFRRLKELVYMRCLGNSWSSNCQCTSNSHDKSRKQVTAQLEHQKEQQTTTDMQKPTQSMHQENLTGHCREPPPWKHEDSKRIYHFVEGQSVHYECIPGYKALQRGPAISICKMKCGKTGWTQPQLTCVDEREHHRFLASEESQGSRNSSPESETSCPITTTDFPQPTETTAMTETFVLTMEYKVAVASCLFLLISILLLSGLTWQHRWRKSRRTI
T2 sequence (looked up) 2: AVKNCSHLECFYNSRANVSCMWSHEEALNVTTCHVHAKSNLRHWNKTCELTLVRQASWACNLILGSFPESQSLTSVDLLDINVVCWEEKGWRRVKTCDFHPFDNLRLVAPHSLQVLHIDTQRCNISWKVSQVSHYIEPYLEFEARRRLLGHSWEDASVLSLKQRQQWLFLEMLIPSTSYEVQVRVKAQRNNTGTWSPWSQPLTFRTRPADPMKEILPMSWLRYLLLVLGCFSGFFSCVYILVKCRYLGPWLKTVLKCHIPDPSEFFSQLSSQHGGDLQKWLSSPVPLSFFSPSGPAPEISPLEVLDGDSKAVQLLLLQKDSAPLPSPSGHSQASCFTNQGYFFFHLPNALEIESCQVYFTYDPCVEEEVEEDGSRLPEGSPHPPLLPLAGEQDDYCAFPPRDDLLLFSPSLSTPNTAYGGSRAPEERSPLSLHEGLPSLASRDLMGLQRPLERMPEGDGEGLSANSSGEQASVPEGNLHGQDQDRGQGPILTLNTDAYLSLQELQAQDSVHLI
T2 sequence (looked up) 3: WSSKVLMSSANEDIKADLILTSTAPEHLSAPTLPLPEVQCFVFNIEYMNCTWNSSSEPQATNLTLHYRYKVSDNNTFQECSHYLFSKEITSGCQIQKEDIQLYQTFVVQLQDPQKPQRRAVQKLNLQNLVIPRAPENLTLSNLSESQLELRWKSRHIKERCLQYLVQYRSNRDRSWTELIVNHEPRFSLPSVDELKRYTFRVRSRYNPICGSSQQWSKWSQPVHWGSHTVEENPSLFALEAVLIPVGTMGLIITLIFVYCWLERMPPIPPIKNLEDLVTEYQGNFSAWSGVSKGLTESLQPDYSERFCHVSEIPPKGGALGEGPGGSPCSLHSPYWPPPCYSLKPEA
The experiment in a line: cell-based or functional assay.

T1 sequence (chain, as listed by the source limits assumed): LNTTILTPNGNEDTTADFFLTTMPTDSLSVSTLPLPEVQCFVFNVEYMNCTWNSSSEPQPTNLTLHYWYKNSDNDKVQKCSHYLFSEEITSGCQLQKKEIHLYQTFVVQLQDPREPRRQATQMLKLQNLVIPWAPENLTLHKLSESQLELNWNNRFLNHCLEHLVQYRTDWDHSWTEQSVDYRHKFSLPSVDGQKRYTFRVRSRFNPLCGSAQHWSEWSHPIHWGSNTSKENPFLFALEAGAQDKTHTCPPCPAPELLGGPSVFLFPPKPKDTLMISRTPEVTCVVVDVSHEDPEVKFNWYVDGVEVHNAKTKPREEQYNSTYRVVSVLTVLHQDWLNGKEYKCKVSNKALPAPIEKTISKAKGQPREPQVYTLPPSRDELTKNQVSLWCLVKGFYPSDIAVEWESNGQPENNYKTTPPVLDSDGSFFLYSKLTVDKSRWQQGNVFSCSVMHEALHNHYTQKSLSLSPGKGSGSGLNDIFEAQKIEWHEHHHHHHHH

B1: Fc-IL-2v heterodimer 109.46 (hIL-2v_Δ1-5_F42A_Y45G_E61A_C125S) (Fc fusion)
chain 1: ESKYGPPCPPCPAPEAAGGPSVFLFPPKPKDTLMISRTPEVTCVVVDVSQEDPEVQFNWYVDGVEVHNAKTKPREEQFNSTYRVVSVLTVLHQDWLNGKEYKCKVSNKGLPSSIEKTISKAKGQPREPQVYTLPPSQEEMTKNQVSLWCLVKGFYPSDIAVEWESNGQPENNYKTTPPVLDSDGSFFLYSRLTVDKSRWQEGNVFSCSVMHEALHNHYTQKSLSLSLGGGGGSGGGGSGGGGSGGGGSSTKKTQLQLEHLLLDLQMILNGINNYKNPKLTRMLTAKFGMPKKATELKHLQCLEAELKPLEEVLNLAQSKNFHLRPRDLISNINVIVLELKGSETTFMCEYADETATIVEFLNRWITFSQSIISTLT
chain 2: ESKYGPPCPPCPAPEAAGGPSVFLFPPKPKDTLMISRTPEVTCVVVDVSQEDPEVQFNWYVDGVEVHNAKTKPREEQFNSTYRVVSVLTVLHQDWLNGKEYKCKVSNKGLPSSIEKTISKAKGQPREPQVYTLPPSQEEMTKNQVSLSCAVKGFYPSDIAVEWESNGQPENNYKTTPPVLDSDGSFFLVSRLTVDKSRWQEGNVFSCSVMHEALHNRFTQKSLSLSLGK
notes: hIgG4 knob-in-hole Fc heterodimer, one IL-2v on the knob chain
With B1, the Kd (usually the concentration at which binding is half-saturated) in experiment [1] came out at 56 pM. The “STAT5 activation of CTLL-2 cells, EC50” value in experiment [2] was found to be 36200 pM.

B2: Fc-IL-2v heterodimer 116.46 (hIL-2v_Δ1-5_R38G_E61A_E62A_C125S) (Fc fusion)
chain 1: ESKYGPPCPPCPAPEAAGGPSVFLFPPKPKDTLMISRTPEVTCVVVDVSQEDPEVQFNWYVDGVEVHNAKTKPREEQFNSTYRVVSVLTVLHQDWLNGKEYKCKVSNKGLPSSIEKTISKAKGQPREPQVYTLPPSQEEMTKNQVSLWCLVKGFYPSDIAVEWESNGQPENNYKTTPPVLDSDGSFFLYSRLTVDKSRWQEGNVFSCSVMHEALHNHYTQKSLSLSLGGGGGSGGGGSGGGGSGGGGSSTKKTQLQLEHLLLDLQMILNGINNYKNPKLTGMLTFKFYMPKKATELKHLQCLEAALKPLEEVLNLAQSKNFHLRPRDLISNINVIVLELKGSETTFMCEYADETATIVEFLNRWITFSQSIISTLT
chain 2: ESKYGPPCPPCPAPEAAGGPSVFLFPPKPKDTLMISRTPEVTCVVVDVSQEDPEVQFNWYVDGVEVHNAKTKPREEQFNSTYRVVSVLTVLHQDWLNGKEYKCKVSNKGLPSSIEKTISKAKGQPREPQVYTLPPSQEEMTKNQVSLSCAVKGFYPSDIAVEWESNGQPENNYKTTPPVLDSDGSFFLVSRLTVDKSRWQEGNVFSCSVMHEALHNRFTQKSLSLSLGK
notes: as for B1
B2 registered a Kd in experiment [1] of 115 pM. Also, the “STAT5 activation of CTLL-2 cells, EC50” value in experiment [2] was found to be 16300 pM.

B3: Fc-IL-2v heterodimer 115.46 (hIL-2v_Δ1-5_F42A_E61A_E62A_C125S) (Fc fusion)
chain 1: ESKYGPPCPPCPAPEAAGGPSVFLFPPKPKDTLMISRTPEVTCVVVDVSQEDPEVQFNWYVDGVEVHNAKTKPREEQFNSTYRVVSVLTVLHQDWLNGKEYKCKVSNKGLPSSIEKTISKAKGQPREPQVYTLPPSQEEMTKNQVSLWCLVKGFYPSDIAVEWESNGQPENNYKTTPPVLDSDGSFFLYSRLTVDKSRWQEGNVFSCSVMHEALHNHYTQKSLSLSLGGGGGSGGGGSGGGGSGGGGSSTKKTQLQLEHLLLDLQMILNGINNYKNPKLTRMLTAKFYMPKKATELKHLQCLEAALKPLEEVLNLAQSKNFHLRPRDLISNINVIVLELKGSETTFMCEYADETATIVEFLNRWITFSQSIISTLT
chain 2: ESKYGPPCPPCPAPEAAGGPSVFLFPPKPKDTLMISRTPEVTCVVVDVSQEDPEVQFNWYVDGVEVHNAKTKPREEQFNSTYRVVSVLTVLHQDWLNGKEYKCKVSNKGLPSSIEKTISKAKGQPREPQVYTLPPSQEEMTKNQVSLSCAVKGFYPSDIAVEWESNGQPENNYKTTPPVLDSDGSFFLVSRLTVDKSRWQEGNVFSCSVMHEALHNRFTQKSLSLSLGK
notes: as for B1
B3 registered a Kd in experiment [1] of 93 pM. For the same molecule, the “STAT5 activation of CTLL-2 cells, EC50” value in experiment [2] came out at 67100 pM.

B4: Fc-IL-2v heterodimer 111.46 (hIL-2v_Δ1-5_R38G_F42A_E61A_C125S) (Fc fusion)
chain 1: ESKYGPPCPPCPAPEAAGGPSVFLFPPKPKDTLMISRTPEVTCVVVDVSQEDPEVQFNWYVDGVEVHNAKTKPREEQFNSTYRVVSVLTVLHQDWLNGKEYKCKVSNKGLPSSIEKTISKAKGQPREPQVYTLPPSQEEMTKNQVSLWCLVKGFYPSDIAVEWESNGQPENNYKTTPPVLDSDGSFFLYSRLTVDKSRWQEGNVFSCSVMHEALHNHYTQKSLSLSLGGGGGSGGGGSGGGGSGGGGSSTKKTQLQLEHLLLDLQMILNGINNYKNPKLTGMLTAKFYMPKKATELKHLQCLEAELKPLEEVLNLAQSKNFHLRPRDLISNINVIVLELKGSETTFMCEYADETATIVEFLNRWITFSQSIISTLT
chain 2: ESKYGPPCPPCPAPEAAGGPSVFLFPPKPKDTLMISRTPEVTCVVVDVSQEDPEVQFNWYVDGVEVHNAKTKPREEQFNSTYRVVSVLTVLHQDWLNGKEYKCKVSNKGLPSSIEKTISKAKGQPREPQVYTLPPSQEEMTKNQVSLSCAVKGFYPSDIAVEWESNGQPENNYKTTPPVLDSDGSFFLVSRLTVDKSRWQEGNVFSCSVMHEALHNRFTQKSLSLSLGK
notes: as for B1
As to B4, the affinity in experiment [1], expressed as Kd, was 69 pM. In addition, the “STAT5 activation of CTLL-2 cells, EC50” value in experiment [2] was determined as 11000 pM.

B5: Fc-IL-2v heterodimer 112.46 (hIL-2v_Δ1-5_R38G_Y45G_E62A_C125S) (Fc fusion)
chain 1: ESKYGPPCPPCPAPEAAGGPSVFLFPPKPKDTLMISRTPEVTCVVVDVSQEDPEVQFNWYVDGVEVHNAKTKPREEQFNSTYRVVSVLTVLHQDWLNGKEYKCKVSNKGLPSSIEKTISKAKGQPREPQVYTLPPSQEEMTKNQVSLWCLVKGFYPSDIAVEWESNGQPENNYKTTPPVLDSDGSFFLYSRLTVDKSRWQEGNVFSCSVMHEALHNHYTQKSLSLSLGGGGGSGGGGSGGGGSGGGGSSTKKTQLQLEHLLLDLQMILNGINNYKNPKLTGMLTFKFGMPKKATELKHLQCLEEALKPLEEVLNLAQSKNFHLRPRDLISNINVIVLELKGSETTFMCEYADETATIVEFLNRWITFSQSIISTLT
chain 2: ESKYGPPCPPCPAPEAAGGPSVFLFPPKPKDTLMISRTPEVTCVVVDVSQEDPEVQFNWYVDGVEVHNAKTKPREEQFNSTYRVVSVLTVLHQDWLNGKEYKCKVSNKGLPSSIEKTISKAKGQPREPQVYTLPPSQEEMTKNQVSLSCAVKGFYPSDIAVEWESNGQPENNYKTTPPVLDSDGSFFLVSRLTVDKSRWQEGNVFSCSVMHEALHNRFTQKSLSLSLGK
notes: as for B1
As for B5, the Kd in experiment [1] was 66 pM. The “STAT5 activation of CTLL-2 cells, EC50” value in experiment [2] is 13100 pM.

B6: Fc-IL-2v heterodimer 110.46 (hIL-2v_Δ1-5_R38G_Y45G_E61A_C125S) (Fc fusion)
chain 1: ESKYGPPCPPCPAPEAAGGPSVFLFPPKPKDTLMISRTPEVTCVVVDVSQEDPEVQFNWYVDGVEVHNAKTKPREEQFNSTYRVVSVLTVLHQDWLNGKEYKCKVSNKGLPSSIEKTISKAKGQPREPQVYTLPPSQEEMTKNQVSLWCLVKGFYPSDIAVEWESNGQPENNYKTTPPVLDSDGSFFLYSRLTVDKSRWQEGNVFSCSVMHEALHNHYTQKSLSLSLGGGGGSGGGGSGGGGSGGGGSSTKKTQLQLEHLLLDLQMILNGINNYKNPKLTGMLTFKFGMPKKATELKHLQCLEAELKPLEEVLNLAQSKNFHLRPRDLISNINVIVLELKGSETTFMCEYADETATIVEFLNRWITFSQSIISTLT
chain 2: ESKYGPPCPPCPAPEAAGGPSVFLFPPKPKDTLMISRTPEVTCVVVDVSQEDPEVQFNWYVDGVEVHNAKTKPREEQFNSTYRVVSVLTVLHQDWLNGKEYKCKVSNKGLPSSIEKTISKAKGQPREPQVYTLPPSQEEMTKNQVSLSCAVKGFYPSDIAVEWESNGQPENNYKTTPPVLDSDGSFFLVSRLTVDKSRWQEGNVFSCSVMHEALHNRFTQKSLSLSLGK
notes: as for B1
In experiment [1], B6 yielded a Kd of 59 pM. Further, the “STAT5 activation of CTLL-2 cells, EC50” value in experiment [2] was 1500 pM.

The values above are taken from patent US20240269235A1 (Gilead, published 2024).
